Laboratory results from FireProtDB (doi:10.1093/protein/7.9.1089).
Where “and” joins values, the source holds several entries; their conditions need not be identical. Identical values can stand only once.

Details: Bacillus amyloliquefaciens, pH 4.4, Thermal, DSC, Sodium acetate/Acetic acid 6.08 mM/13.92 mM/, reversible: yes (>95%), whole UniProt chain shown

B1: Ribonuclease wild type, P00648 (protein)
chain: MMKMEGIALKKRLSWISVCLLVLVSAAGMLFSTAAKTETSSHKAHTEAQVINTFDGVADYLQTYHKLPDNYITKSEAQALGWVASKGNLADVAPGKSIGGDIFSNREGKLPGKSGRTWREADINYTSGFRNSDRILYSSDWLIYKTTDHYQTFTKIR
**Q.** For B1, which “heat capacity change of unfolding” value (25 °C) is on record?
**A.** 1.6 kcal/mol/K

**Q.** And the unfolding free energy (25 °C)?
**A.** 8.69 kcal/mol and 8.66 kcal/mol

**Q.** What about the Tm of the same protein?
**A.** 51.5 °C and 51.6 °C

**Q.** And the “unfolding enthalpy (calorimetric)” value?
**A.** 128 kcal/mol

**Q.** What about the “unfolding enthalpy (van 't Hoff)” value of the same protein?
**A.** 128 kcal/mol and 129 kcal/mol
